By Kd is commonly meant the constant that tells how readily two partners part at equilibrium.

The values below come from publication PMC9618136 (2022).

The assay addresses AVR-Pii effector domain (residues 20 to 70), purified (Magnaporthe oryzae). The assay is described as follows: ITC. On the technique in general: ITC needs no label: the signal is the heat of the interaction.

B1: OsExo70F2, N-terminally truncated, purified (domain or fragment)
chain: ISAAAFDAAEQLIQVWDGTPEALVFEATEDEVAEYLSAVDVAIEHLARGSGGGAGGAGSSSSSTAGRAGVAVQLAMARLEEELRHLMVRHAVPLDPTGLFFSLRRLSLGSMDDLDTSSEFDAATPHSIDVAPETARGGPLVNPFEDQVFDPVRPEAVDDLRAIADRMARAGYSRELADAYCGIRRDLLDEYLSALGVERLSIDEVQRIEWKHLNDKMKKWVQAVKTVVRVLLAGERRLCDQVLSVSDELREECFIESTKGCIMQILSFGDAVAVCPRSPEKLSRILDMYEALAEVIPEMKDLCLGSSGDGVISDVQANLDRLGDAIRGTLFEFGKVLQLESSRRAMTAGEIHPMTRYVMNYLRLLVVYSDTLDALLDDNADDQIDLARAEDQDQEHLESMTPLGKRLLKLISYLEANLEEKSKLYEDSALECIFSMNNLLYIVQKVRDSELGKILGDHWVKRRNGKIRQYSKSYLRISWMKVLSFLKDDGHGSGSGSSSGSGSGHSSSRMSIKEKFKNFNLAFEEIYRNQTTWKVPDPQLREELKISISENVIPAYRAFLGRYGSQVDGGRNSGKYIKYTPEDLESQLSDLFEGAPGPANHSRRRT
As for B1, the dissociation constant Kd was below 1 nM.
